Measurements reported in patent WO2005092925A2.

What was measured:
Experiment in all cases: AlphaScreen
[1] = target: human FcRn (human) (UniProt P55899)
[2] = target: human FcγRI (human) (UniProt P12314)
[3] = target: human FcγRIIa H131 (human) (UniProt P12318)
[4] = target: human FcγRIIb (human) (UniProt P31994)
[5] = target: human FcγRIIc (human) (UniProt P31995)
[6] = target: human V158 FcγRIIIa, extracellular region fused with GST (human) (UniProt P08637)
Sequence of UniProt P08637 (P08637 17-208 F176V): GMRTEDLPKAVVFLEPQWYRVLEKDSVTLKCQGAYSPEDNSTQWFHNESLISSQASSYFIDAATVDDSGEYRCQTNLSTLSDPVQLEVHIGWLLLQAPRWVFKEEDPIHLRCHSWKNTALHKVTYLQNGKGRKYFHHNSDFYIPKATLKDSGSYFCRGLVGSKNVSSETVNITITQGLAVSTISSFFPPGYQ

Sequence of UniProt P12314 (P12314 16-288 limits assumed): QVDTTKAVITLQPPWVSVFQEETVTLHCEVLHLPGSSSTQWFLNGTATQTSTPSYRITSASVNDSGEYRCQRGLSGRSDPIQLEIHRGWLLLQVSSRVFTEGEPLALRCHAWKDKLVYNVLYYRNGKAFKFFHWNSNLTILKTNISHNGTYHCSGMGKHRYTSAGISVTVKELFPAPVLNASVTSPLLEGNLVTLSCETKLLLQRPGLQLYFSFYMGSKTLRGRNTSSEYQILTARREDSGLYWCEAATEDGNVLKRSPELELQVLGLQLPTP
Sequence of UniProt P12318 (P12318 36-218 limits assumed): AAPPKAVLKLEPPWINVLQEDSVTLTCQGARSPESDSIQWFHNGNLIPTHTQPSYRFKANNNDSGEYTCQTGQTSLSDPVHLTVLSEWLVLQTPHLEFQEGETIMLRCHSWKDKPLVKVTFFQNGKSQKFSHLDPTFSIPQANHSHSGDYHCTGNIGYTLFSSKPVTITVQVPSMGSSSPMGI
Sequence of UniProt P31994 (P31994 43-217 limits assumed): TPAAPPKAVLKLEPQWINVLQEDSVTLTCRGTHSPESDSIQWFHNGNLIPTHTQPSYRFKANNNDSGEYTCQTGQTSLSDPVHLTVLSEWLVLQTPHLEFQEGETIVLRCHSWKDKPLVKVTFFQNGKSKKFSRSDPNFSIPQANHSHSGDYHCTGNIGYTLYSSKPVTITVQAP
Sequence of UniProt P31995 (P31995 43-217 limits assumed): as the sequence (P31994 43-217 limits assumed) above
Sequence of UniProt P55899 (P55899 24-297 limits assumed): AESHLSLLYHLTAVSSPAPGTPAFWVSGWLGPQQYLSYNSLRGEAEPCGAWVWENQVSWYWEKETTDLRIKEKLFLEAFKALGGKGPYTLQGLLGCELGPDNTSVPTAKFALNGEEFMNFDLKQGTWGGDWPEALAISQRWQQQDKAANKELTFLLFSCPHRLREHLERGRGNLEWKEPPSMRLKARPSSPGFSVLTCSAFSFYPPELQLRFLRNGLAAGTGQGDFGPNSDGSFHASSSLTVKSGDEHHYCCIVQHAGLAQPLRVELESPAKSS

Substance | Fold WT [1] | Fold WT [2] | Fold WT [3] | Fold WT [4] | Fold WT [5] | Fold WT [6]
Campath L235M (antibody) | 0.69 fold | 0.38 fold | 0.79 fold | 0.89 fold | 0.64 fold | 0.46 fold
Campath P230Y (antibody) | 0.65 fold | 0.44 fold | 0.4 fold | 0.85 fold | 1.22 fold | 0.56 fold
Campath D221K (antibody) | 5.66 fold | 4.53 fold | 4.32 fold | 3.5 fold | 17.8 fold | 65.6 fold
Campath G236W (antibody) | 1.52 fold | 0.78 fold | 2.13 fold | 0.7 fold | 0.29 fold | 0.29 fold
Campath E233V (antibody) | 0.91 fold | 0.25 fold | 0.71 fold | 0.37 fold | 0.61 fold | 0.5 fold
Campath E233L (antibody) | 0.6 fold | 0.53 fold | 0.55 fold | 0.26 fold | 0.54 fold | 0.52 fold
Campath G236V (antibody) | 1.35 fold | 0.14 fold | 1.52 fold | 0.82 fold | 0.47 fold | 0.27 fold
Campath E233I (antibody) | 0.95 fold | 0.3 fold | 1.09 fold | 1.69 fold | 1.8 fold | 0.88 fold
Campath G236D (antibody) | 1.53 fold | 0.15 fold | 5.01 fold | 3.77 fold | 4.74 fold | 
Campath K222Y (antibody) | 0.66 fold | 0.77 fold | 0.48 fold | 0.5 fold | 0.34 fold | 0.34 fold
Campath L234M (antibody) | 0.55 fold | 0.64 fold | 0.89 fold | 0.9 fold | 0.65 fold | 0.49 fold
Campath G236A (antibody) | 1.75 fold | 0.48 fold | 45 fold | 1.05 fold | 1.45 fold | 0.65 fold
Campath E233T (antibody) | 1.19 fold | 0.15 fold | 1.28 fold | 0.78 fold | 0.83 fold | 0.42 fold
Campath G236S (antibody) | 1.77 fold | 0.55 fold | 22.7 fold | 2.77 fold | 3.68 fold | 5.77 fold
Campath L234K (antibody) | 0.62 fold | 0.43 fold | 0.65 fold | 1.42 fold | 1.09 fold | 0.53 fold
Campath G236M (antibody) | 1.6 fold |  | 0.34 fold | 0.79 fold | 0.4 fold | 0.19 fold
Campath P232K (antibody) | 1.56 fold | 0.7 fold | 0.87 fold | 0.85 fold | 0.61 fold | 0.77 fold
Campath K222E (antibody) | 0.64 fold | 1.77 fold | 1.26 fold | 1.04 fold | 1.22 fold | 1.51 fold
Campath E233R (antibody) | 1.05 fold | 0.14 fold | 0.75 fold | 0.36 fold | 0.6 fold | 0.35 fold
Campath L234G (antibody) | 2.54 fold | 0.7 fold | 3.26 fold | 3.62 fold | 3.48 fold | 2.17 fold
Campath P232E (antibody) | 0.76 fold | 2.97 fold | 0.8 fold | 1.59 fold | 0.99 fold | 1.51 fold
Campath E233H (antibody) | 0.99 fold | 0.17 fold | 0.74 fold | 0.58 fold | 0.78 fold | 0.32 fold
Campath E233F (antibody) | 0.9 fold | 0.23 fold | 0.64 fold | 0.73 fold | 0.84 fold | 0.58 fold
